Data reported in patent US20020123614A1 (published 2002).

T1: recombinant ICAM-2 Fc chimera (UniProt P13598 25-223, limits assumed)
T1 construct: amine-coupled to the BIAcore chip; not shown: Fc part, not described
T1 sequence (looked up): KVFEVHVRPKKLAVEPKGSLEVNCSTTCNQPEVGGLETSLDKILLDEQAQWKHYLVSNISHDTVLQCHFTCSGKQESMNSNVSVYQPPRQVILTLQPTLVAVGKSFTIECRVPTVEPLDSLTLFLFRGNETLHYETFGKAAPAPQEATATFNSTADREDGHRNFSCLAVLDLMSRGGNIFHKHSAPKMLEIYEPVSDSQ

T2: recombinant ICAM-3 Fc chimera (UniProt P32942 30-485, limits assumed)
T2 construct: amine-coupled to the BIAcore chip; not shown: Fc part, not described
T2 sequence (looked up): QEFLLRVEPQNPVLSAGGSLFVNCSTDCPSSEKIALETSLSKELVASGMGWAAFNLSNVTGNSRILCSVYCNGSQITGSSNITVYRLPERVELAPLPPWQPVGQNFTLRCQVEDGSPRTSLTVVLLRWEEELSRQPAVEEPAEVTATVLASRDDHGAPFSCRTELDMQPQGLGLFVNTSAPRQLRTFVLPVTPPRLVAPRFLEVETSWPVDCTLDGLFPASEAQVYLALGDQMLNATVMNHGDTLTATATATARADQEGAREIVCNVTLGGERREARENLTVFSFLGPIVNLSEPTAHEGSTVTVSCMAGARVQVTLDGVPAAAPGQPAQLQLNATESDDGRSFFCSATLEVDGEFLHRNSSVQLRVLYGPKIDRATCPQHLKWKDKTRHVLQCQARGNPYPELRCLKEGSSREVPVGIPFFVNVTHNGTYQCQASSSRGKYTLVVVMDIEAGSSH


Columns and labels:
[1] = biological target: T1, recombinant ICAM-2 Fc chimera; assay: BIAcore, 1 mM MgCl2
Experimental: (§1) The recombinant proteins were purified from inclusion bodies by solubilization of inclusion bodies in 6M guanidine HCl and were refolded by dilution in the presence of 0.1 mM Cu²⁺/phenanthrolin to enhance formation of disulfide bonds. Protein was concentrated by ammonium sulfate precipitation, dialyzed, and purified over a monoQ ion-exchange column. […] The recombinant proteins were then purified by gel filtration and concentrated by Centriprep. For BIAcore™ analysis, recombinant ICAM-1, ICAM-2 and ICAM-3 Fc chimeras were immobilized on the BIAcore™ sensor chip by an amine-coupling method. Recombinant αL I-domains were flowed in, and BIAcore™ assays were performed with Tris-buffered saline supplemented with 1 mM MgCl₂ or 2 mM EDTA, at a flow rate of 10 μl/minute at 25° C.

[2] = biological target: T2, recombinant ICAM-3 Fc chimera; assay: BIAcore, 1 mM MgCl2
Experimental: as §1

[3] = biological target: T3, recombinant ICAM-1 Fc chimera (UniProt P05362 28-480, limits assumed); assay: BIAcore; Kon calculated by Koff/KD
T3 construct: amine-coupled to the BIAcore chip; not shown: Fc part, not described
Experimental: (§2) Recombinant soluble αL I-domains were expressed in E. coli, refolded and purified. Kinetics of binding of the I-domains to ICAM-1 was measured by BIAcore ™ instruments. Kinetics was analyzed BIAevaluation ™ software. KD was calculated by Scatchard plots using data at steady states. Koff was obtained by curve fining of the dissociation phase using 1:1 binding model. Kon was calculated by Koff/KD.

[4] = biological target: T3, recombinant ICAM-1 Fc chimera; assay: BIAcore; dissociation phase, 1:1 model
Experimental: as §2

[5] = biological target: T3, recombinant ICAM-1 Fc chimera; assay: BIAcore; Scatchard plots at steady state
Experimental: as §2

[6] = biological target: ICAM-1 (BIAcore, another study; construct not stated) (UniProt P05362 28-480, limits assumed); assay: BIAcore, another study
murine ICAM-1 = biological target: T4, murine ICAM-1 (murine, UniProt P13597 28-485, limits assumed); assay: BIAcore (not described further)
T4 construct: on EL-4 cells in the aggregation assay

[7] = biological target: T3, recombinant ICAM-1 Fc chimera; assay: BIAcore, ICAM Fc chimera immobilized, 1:1 model
Experimental: as §1

[8] = biological target: T1, recombinant ICAM-2 Fc chimera; assay: BIAcore, ICAM Fc chimera immobilized, 1:1 model
Experimental: as §1

[9] = biological target: T2, recombinant ICAM-3 Fc chimera; assay: BIAcore, ICAM Fc chimera immobilized, 1:1 model
Experimental: as §1

T3 sequence (P05362 28-480 limits assumed, change not shown): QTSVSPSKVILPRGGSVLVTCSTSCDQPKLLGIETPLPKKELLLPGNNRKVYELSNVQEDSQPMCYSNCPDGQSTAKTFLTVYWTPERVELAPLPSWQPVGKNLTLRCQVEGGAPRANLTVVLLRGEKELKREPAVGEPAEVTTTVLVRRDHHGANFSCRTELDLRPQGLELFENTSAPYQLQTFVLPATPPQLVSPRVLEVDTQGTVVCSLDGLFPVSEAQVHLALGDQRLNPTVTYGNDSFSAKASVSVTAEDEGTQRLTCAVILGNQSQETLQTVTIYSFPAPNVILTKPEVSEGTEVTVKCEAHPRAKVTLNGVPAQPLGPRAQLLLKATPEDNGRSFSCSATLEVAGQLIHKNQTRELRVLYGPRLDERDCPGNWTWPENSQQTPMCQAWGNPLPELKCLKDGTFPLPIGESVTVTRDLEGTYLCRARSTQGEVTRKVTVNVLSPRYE
T4 sequence (P13597 28-485 limits assumed): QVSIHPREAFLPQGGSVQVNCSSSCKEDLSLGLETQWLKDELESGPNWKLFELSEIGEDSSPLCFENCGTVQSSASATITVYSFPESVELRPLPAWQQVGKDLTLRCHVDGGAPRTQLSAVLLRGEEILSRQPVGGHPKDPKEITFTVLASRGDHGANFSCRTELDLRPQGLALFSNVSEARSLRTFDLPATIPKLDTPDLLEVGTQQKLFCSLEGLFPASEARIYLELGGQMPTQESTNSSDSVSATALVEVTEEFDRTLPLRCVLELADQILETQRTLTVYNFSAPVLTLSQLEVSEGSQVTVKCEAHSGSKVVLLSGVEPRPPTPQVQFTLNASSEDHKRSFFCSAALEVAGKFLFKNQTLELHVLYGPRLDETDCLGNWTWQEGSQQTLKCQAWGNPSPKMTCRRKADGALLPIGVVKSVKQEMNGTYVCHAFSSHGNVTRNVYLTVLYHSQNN
Sequence of ICAM-1 (BIAcore, another study; construct not stated) (P05362 28-480 limits assumed): as the sequence (P05362 28-480 limits assumed, change not shown) above

Row | kon [3] | koff [4] | Kd [5] | Binder | other results
1 |  |  |  | recombinant soluble wild-type αL I-domain (G128-Y307), E. coli (receptor, numbers as printed, probably mature αL numbering; also called soluble wild-type I domain; wild-type I-domain) GNVDLVFLFDGSMSLQPDEFQKILDFMKDVMKKLSNTSYQFAAVQFSTSYKTEFDFSDYVKRKDPDALLKHVKHMLLLTNTFGAINYVATEVFREELGARPDATKVLIIITDGEATDSGNIDAAKDIIRYIIGIGKHFQTKESQETLHKFASKPASEFVKILDTFEKLKDLFTELQKKIY | binding result [1]: no binding; binding result [2]: no binding
2 | 136000 M⁻¹ s⁻¹ | 0.513 s⁻¹ | 3.76 µM | recombinant soluble αL I-domain L161C/F299C (locked open, intermediate affinity) (receptor) GNVDLVFLFDGSMSLQPDEFQKILDFMKDVMKKCSNTSYQFAAVQFSTSYKTEFDFSDYVKRKDPDALLKHVKHMLLLTNTFGAINYVATEVFREELGARPDATKVLIIITDGEATDSGNIDAAKDIIRYIIGIGKHFQTKESQETLHKFASKPASEFVKILDTFEKLKDLCTELQKKIY | 
3 | 128000 M⁻¹ s⁻¹ | 0.0459 s⁻¹ | 0.36 µM | recombinant soluble αL I-domain E284C/E301C (locked open) (receptor) GNVDLVFLFDGSMSLQPDEFQKILDFMKDVMKKLSNTSYQFAAVQFSTSYKTEFDFSDYVKRKDPDALLKHVKHMLLLTNTFGAINYVATEVFREELGARPDATKVLIIITDGEATDSGNIDAAKDIIRYIIGIGKHFQTKESQETLHKFASKPASCFVKILDTFEKLKDLFTCLQKKIY | 
4 | 2110 M⁻¹ s⁻¹ | 2.84 s⁻¹ | 1760 µM | recombinant soluble αL I-domain L289C/K294C (locked closed) (receptor) GNVDLVFLFDGSMSLQPDEFQKILDFMKDVMKKLSNTSYQFAAVQFSTSYKTEFDFSDYVKRKDPDALLKHVKHMLLLTNTFGAINYVATEVFREELGARPDATKVLIIITDGEATDSGNIDAAKDIIRYIIGIGKHFQTKESQETLHKFASKPASEFVKICDTFECLKDLFTELQKKIY | 
5 | 153000 M⁻¹ s⁻¹ | 0.67 s⁻¹ | 4.39 µM | recombinant soluble αL I-domain K160C/F299C (locked open, intermediate affinity) (receptor) GNVDLVFLFDGSMSLQPDEFQKILDFMKDVMKCLSNTSYQFAAVQFSTSYKTEFDFSDYVKRKDPDALLKHVKHMLLLTNTFGAINYVATEVFREELGARPDATKVLIIITDGEATDSGNIDAAKDIIRYIIGIGKHFQTKESQETLHKFASKPASEFVKILDTFEKLKDLCTELQKKIY | 
6 | 128000 M⁻¹ s⁻¹ | 0.023 s⁻¹ | 0.18 µM | recombinant soluble αL I-domain stabilized in the open conformation (K287C/K294C), G128-Y307, E. coli (receptor, introduced disulfide C287-C294, numbers as printed, probably mature αL numbering; also called open I-domain; soluble open I-domain) GNVDLVFLFDGSMSLQPDEFQKILDFMKDVMKKLSNTSYQFAAVQFSTSYKTEFDFSDYVKRKDPDALLKHVKHMLLLTNTFGAINYVATEVFREELGARPDATKVLIIITDGEATDSGNIDAAKDIIRYIIGIGKHFQTKESQETLHKFASKPASEFVCILDTFECLKDLFTELQKKIY | Kd [6]: 0.2 µM; binding result (murine ICAM-1): binds; Kd [7]: 0.18 µM; koff [7]: 0.023 s⁻¹; kon [7]: 128000 M⁻¹ s⁻¹; Kd [8]: 0.513 µM; koff [8]: 0.0118 s⁻¹; kon [8]: 23000 M⁻¹ s⁻¹; Kd [9]: 3.94 µM; koff [9]: 0.0749 s⁻¹; kon [9]: 19000 M⁻¹ s⁻¹
7 | 135000 M⁻¹ s⁻¹ | 0.65 s⁻¹ | 4.8 µM | recombinant soluble αL I-domain L161C/T300C (locked open, intermediate affinity) (receptor) GNVDLVFLFDGSMSLQPDEFQKILDFMKDVMKKCSNTSYQFAAVQFSTSYKTEFDFSDYVKRKDPDALLKHVKHMLLLTNTFGAINYVATEVFREELGARPDATKVLIIITDGEATDSGNIDAAKDIIRYIIGIGKHFQTKESQETLHKFASKPASEFVKILDTFEKLKDLFCELQKKIY | 
